Assay results: patent US20240294661A1 (Genmab, published 2024)
Where a chain is given by its changes, count along the chain named.

B1: Anti-TF HuMab 098 (antibody, IgG1, V domains shown)
VH: QVQLVQSGAEVRKPGSSVKVSCKASGGSFNNYPIFWVRQAPGQGFEWMGRIIPILGITAYAQKFQGRVTITADKSTSTAYMELNSLRSEDTAVYYCAGGDDLDAFDIWGQGTMVSVSS
VL: DIQMTQSPSSLSASVGDRVTITCRASQGISSWLAWYQQKPEKAPKSLIYAASSLQSGVPSRFSGSGSGTDFTLTISSLQPEDFATYYCQQYNSYPYTFGQGTKLEIK
notes: full length, fully human monoclonal IgG1,kappa; also called HuMab-TF-098
B2: Anti-TF HuMab 011 (antibody, IgG1, V domains shown)
VH: EVQLLESGGGLVQPGGSLRLSCAASGFTFSNYAMSWVRQAPGKGLEWVSSISGSGDYTYYTDSVKGRFTISRDNSKNTLYLQMNSLRAEDTAVYYCARSPWGYYLDSWGQGTLVTVSS
VL: B1 VL with S9P, V15A, W32R
notes: full length, fully human monoclonal IgG1,kappa; also called HuMab-TF-011
B3: HuMab-TF-011-mcMMAF (antibody, IgG1, V domains shown)
VH: B2 VH
VL: B1 VL with S9P, V15A, W32R
modifications: mcMMAF drug-linker alkylated to cysteines of the reduced antibody (positions not given)
notes: DAR 3.9 by RP-HPLC, 4.1 by HIC
B4: HuMab-TF-011-vcMMAE (antibody, IgG1, V domains shown)
VH: B2 VH
VL: B1 VL with S9P, V15A, W32R
modifications: vcMMAE drug-linker alkylated to cysteines of the reduced antibody (positions not given)
notes: DAR 3.9 by RP-HPLC, 3.9 by HIC
B5: HuMab-TF-098-vcMMAE (antibody, IgG1, V domains shown)
VH: B1 VH
VL: B1 VL
modifications: vcMMAE drug-linker alkylated to cysteines of the reduced antibody (positions not given)
notes: DAR 3.9 by RP-HPLC, 3.7 by HIC
B6: HuMab-TF-013 (antibody, V domains shown)
VH: EVQLVQSGAEVKKPGESLKISCKGSGYSFTSYWIGWVRQMPGKGLEWMGIIYPGDSDTRYSPSFQGQVTISADKSISTAYLQWSSLKASDTAMYYCARIHRGAGYSSSWPGAFDIWGQGTMVTVSS
VL: B1 VL with S31R, N92D, Y94D, Y96I, K103R
B7: HuMab-TF-098-mcMMAF (antibody, IgG1, V domains shown)
VH: B1 VH
VL: B1 VL
modifications: mcMMAF drug-linker alkylated to cysteines of the reduced antibody (positions not given)
notes: DAR 4.0 by RP-HPLC, 3.9 by HIC
B8: HuMab-TF-044 (antibody, V domains shown)
VH: QVQLVESGGGVVQPGRSLRLSCAASGFTFSDYAMHWVRQAPGKGLEWVAVIPYDGDNKYYADSVKGRFTISRDNSKNTLYLQMNSLRAEDTAVYYCAREDWGLEVDYWGQGALVTVSS
VL: AIQLTQSPSSLSASVGDRVTITCRASQGINSALAWYQQKPGKAPKLLIYDASSLESGVPSRFSGSGSGTDFTLTISSLQPEDFATYYCQQFNSYPLTFGGGTKVEIK
B9: Anti-TF HuMab 111 (antibody, IgG1, V domains shown)
VH: QVQLVESGGGVVQPGRSLRLSCAGSGFTFNRYAMYWVRQAPGKGLDWVAVISNDGINKYYADSVKGRFTISRDNSKNTLYLQMNSLRAEDTAVYYCARDHTMVRGAFDYWGQGTLVTVSS
VL: EIVLTQSPATLSLSPGERATLSCRASQSVSSYLAWYQQKPGQAPRLLIYDASNRATGIPARFSGSGSGTDFTLTISSLEPEDFAVYYCQQRSNWPLTFGGGTKVEIK
notes: full length, fully human monoclonal IgG1,kappa
B10: HuMab-TF-111-mcMMAF (antibody, IgG1, V domains shown)
VH: B9 VH
VL: B9 VL
modifications: mcMMAF drug-linker alkylated to cysteines of the reduced antibody (positions not given)
notes: DAR 4.1 by RP-HPLC, 4.2 by HIC
B11: HuMab-TF-111-vcMMAE (antibody, IgG1, V domains shown)
VH: B9 VH
VL: B9 VL
modifications: vcMMAE drug-linker alkylated to cysteines of the reduced antibody (positions not given)
notes: DAR 4.3 by RP-HPLC, 4.1 by HIC

What was measured:
[1] = target: T1, membrane-bound tissue factor (TF) on cells (human, UniProt P13726 33-295); experiment: FACS, inhibition of binding of 100 nM FVIIa to TF on MDA-MB-231 cells; one representative experiment
T1 construct: whole, on cells; also called CD142
Method: MDA-MB-231 cells were washed in PBS to remove serum and plated in 96-well plates (100,000 cells per well). […] Cells were washed with FACS buffer and mean fluorescence intensity (MFI) was measured on a FACSCanto II (Becton Dickinson).

[2] = target: T1, membrane-bound tissue factor (TF) on …; experiment: cell-based or functional assay
[3] = target: T2, TFECDHis (extracellular domain of tissue factor, amino acid 1-251, with C-terminal His tag) (human, UniProt P13726 33-251); experiment: ELISA, coated TFECDHis
T2 construct: range 1-251; The stated range 1-251 starts at residue 1 of the precursor; also called recombinant extracellular domain of TF
Method: (§1) Binding of the anti-TF ADCs to TF was measured by ELISA (coated recombinant extracellular domain of TF) and compared with binding of unconjugated anti-TF HuMabs. […] ELISA plates were washed three times with PBS containing 0.05% Tween-20 (PBST), blocked with 200 µL/well PBST at RT for 1 h while shaking (300 rpm), washed three times with PBST and emptied. Subsequently, 100 μl anti-TF ADCs or unconjugated anti-TF HuMabs were added in serial dilutions in PBST and incubated while shaking at RT for 90 min. ELISA plates were washed three times with PBST and emptied. […] Plates were washed three times with PBST, emptied and incubated with 100 μL ABTS solution (50 ml ABTS buffer [Roche] and one ABTS tablet [50 mg; Roche]). After incubation in the dark at RT for 30 min, the reaction was stopped by incubation with 100 μL per well oxalic acid (2% [w/v]; Riedel de Haen) in the dark, for 10 min. Plates were measured at OD 405 nm in an ELISA reader (Biotek Instruments, EL808 Absorbance Microplate Reader).
(§2) Binding curves were analyzed by non-linear regression (sigmoidal dose-response with variable slope) using GraphPad Prism 5 software (GraphPad Software, San Diego, CA, USA).

[4] = target: T2, TFECDHis (extracellular domain of …); experiment: ELISA, coated TFECDHis; lower end of the group's range, tied to 011 unconjugated by Table 7 (373)
[5] = target: T1, membrane-bound tissue factor (TF) on …; experiment: cell-based or functional assay; remark: listed apart in the source
[6] = target: T2, TFECDHis (extracellular domain of …); experiment: ELISA, coated TFECDHis; upper end of the group's range, tied to 011-vcMMAE by Table 7 (469)
Method: as §1, §2

Row | Binder | IC50 [1] [ng/mL] | % kill, A431 cells, anti-kappa-ETA' assay [2] [%] | % kill, BxPC3 cells, anti-kappa-ETA' assay [2] [%] | % kill, MDA-MB-231 cells, anti-kappa-ETA' assay [2] [%] | EC50 of cell killing, A431 cells, anti-kappa-ETA' assay [2] [ng/mL] | EC50 of cell killing, BxPC3 cells, anti-kappa-ETA' assay [2] [ng/mL] | EC50 of cell killing, MDA-MB-231 cells, anti-kappa-ETA' assay [2] [ng/mL] | EC50 [3] [ng/mL] | EC50 [4] [ng/mL] | % kill at 10 µg/mL, A431 cells, ADC killing assay [5] [%] | % kill at 10 µg/mL, HPAF-II cells, ADC killing assay [5] [%] | % kill at 10 µg/mL, NCI-H441 cells, ADC killing assay [5] [%] | IC50 of cell killing, A431 cells, ADC killing assay [5] [ng/mL] | IC50 of cell killing, HPAF-II cells, ADC killing assay [5] [ng/mL] | IC50 of cell killing, NCI-H441 cells, ADC killing assay [5] [ng/mL] | EC50 [6] [ng/mL]
1 | B1 | 1220 | 95 | 99 | 96 | 0.09 | 0.013 | 0.72 | 422 | – | – | – | – | – | – | – | –
2 | B2 | 647 | 96 | 98 | 88 | 0.39 | 0.26 | 3 | 373 | 370 | – | – | – | – | – | – | –
3 | B3 | – | – | – | – | – | – | – | 431 | – | 78 | 72 | 53 | 22 | 5 | 5 | –
4 | B4 | – | – | – | – | – | – | – | 469 | – | 93 | 71 | 60 | 10 | 3 | 10 | 470
5 | B5 | – | – | – | – | – | – | – | 426 | – | 92 | 71 | 60 | 9 | 1 | 10 | –
6 | B6 | – | 80 | 96 | 56 | 20 | 9.4 | – | – | – | – | – | – | – | – | – | –
7 | B7 | – | – | – | – | – | – | – | 401 | – | 85 | 73 | 63 | 13 | 5 | 4 | –
8 | B8 | – | 66 | 96 | 44 | 98 | 15 | – | – | – | – | – | – | – | – | – | –
9 | B9 | – | 92 | 98 | 88 | 34 | 15 | 23 | 377 | – | – | – | – | – | – | – | –
10 | B10 | – | – | – | – | – | – | – | 416 | – | 73 | 74 | 62 | 83 | 15 | 416 | –
11 | B11 | – | – | – | – | – | – | – | 464 | – | 90 | 73 | 51 | 46 | 4 | 416 | –
